These results are taken from PMC8422858.

For this assay, the target named is His-tagged recombinant human apolipoprotein L3 (rHis-APOL3) (human). Briefly: native MS.

Take “His-tagged recombinant human apolipoprotein L3 (rHis-APOL3) (natural protein)”: the stoichiometry N amounted to 2.

In general, stoichiometry N refers to a count of units in the complex or per binding partner.
